Assay results from patent publication US20140322196A1 (priority 2011, published 2014).

Tested on: A/Parma/24/09 (Brisbane-like) (oseltamivir-resistant) H1N1
Type: cell-based, Influenza A virus
Conditions: A/Parma/24/09 H1N1

B1: bLf: Lactoferrin from bovine milk, purchased from Morinaga Milk Industries, deprived of endotoxin (protein, UniProt P24627 20-708, looked up)
Lactotransferrin: APRKNVRWCTISQPEWFKCRRWQWRMKKLGAPSITCVRRAFALECIRAIAEKKADAVTLDGGMVFEAGRDPYKLRPVAAEIYGTKESPQTHYYAVAVVKKGSNFQLDQLQGRKSCHTGLGRSAGWIIPMGILRPYLSWTESLEPLQGAVAKFFSASCVPCIDRQAYPNLCQLCKGEGENQCACSSREPYFGYSGAFKCLQDGAGDVAFVKETTVFENLPEKADRDQYELLCLNNSRAPVDAFKECHLAQVPSHAVVARSVDGKEDLIWKLLSKAQEKFGKNKSRSFQLFGSPPGQRDLLFKDSALGFLRIPSKVDSALYLGSRYLTTLKNLRETAEEVKARYTRVVWCAVGPEEQKKCQQWSQQSGQNVTCATASTTDDCIVLVLKGEADALNLDGGYIYTAGKCGLVPVLAENRKSSKHSSLDCVLRPTEGYLAVAVVKKANEGLTWNSLKDKKSCHTAVDRTAGWNIPMGLIVNQTGSCAFDEFFSQSCAPGADPKSRLCALCAGDDQGLDKCVPNSKEKYYGYTGAFRCLAEDVGDVAFVKNDTVWENTNGESTADWAKNLNREDFRLLCLDGTRKPVTEAQSCHLAVAPNHAVVSRSDRAAHVKQVLLHQQALFGKNGKNCPDKFCLFKSETKNLLFNDNTECLAKLGGRPTYEEYLGTEYVTAIANLKKCSTSPLLEACAFLTR
  HI titre: 6 nM
